Two variants from IntAct's records for PubMed 26237645 can be followed below.

B1: Fumarate hydratase, mitochondrial (Homo sapiens), P07954 (parent)
chain: MYRALRLLARSRPLVRAPAAALASAPGLGGAAVPSFWPPNAARMASQNSFRIEYDTFGELKVPNDKYYGAQTVRSTMNFKIGGVTERMPTPVIKAFGILKRAAAEVNQDYGLDPKIANAIMKAADEVAEGKLNDHFPLVVWQTGSGTQTNMNVNEVISNRAIEMLGGELGSKIPVHPNDHVNKSQSSNDTFPTAMHIAAAIEVHEVLLPGLQKLHDALDAKSKEFAQIIKIGRTHTQDAVPLTLGQEFSGYVQQVKYAMTRIKAAMPRIYELAAGGTAVGTGLNTRIGFAEKVAAKVAALTGLPFVTAPNKFEALAAHDALVELSGAMNTTACSLMKIANDIRFLGSGPRSGLGELILPENEPGSSIMPGKVNPTQCEAMTMVAAQVMGNHVAVTVGGSNGHFELNVFKPMMIKNVLHSARLLGDASVSFTENCVVGIQANTERINKLMNESLMLVTALNPHIGYDKAAKIAKTAHKNGSTLKETAIELGYLTAEQFDEWVKPKDMLGPK

In the first assay the parent is B1. Particulars: with h2az_human H2AZ1, P0C0S5.
Sequence of h2az_human H2AZ1, P0C0S5 (P0C0S5 whole entry): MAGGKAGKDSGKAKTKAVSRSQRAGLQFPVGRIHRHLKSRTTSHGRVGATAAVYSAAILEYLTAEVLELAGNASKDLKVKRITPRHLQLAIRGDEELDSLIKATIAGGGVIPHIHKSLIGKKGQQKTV
On to T236D, for which the “effect of a mutation on the interaction” value is “increasing interaction strength”.
Same read-out and setting: next, T236A: “disrupting interaction strength”.

Another assay covers variants of B1. Particulars: with h2az_human H2AZ1, P0C0S5. This is another data set of the same source.
Consider T236A, for which the “effect of a mutation on the interaction” value was “decreasing interaction strength”.
